Test results from patent US20160137739A1 (KINIKSA PHARMACEUTICALS, published 2016).
Numbering of substitutions follows the chain as printed. Names may count otherwise.

B1: Ab1 (antibody, human IgG2, lambda, V domains shown)
VH: QVQLVQSGAEVKKPGASVKVSCKASGYTFTSYDINWVRQATGQGLEWMGWMNPNSGNTDYAQKFQGRVTMTRNISISTAYIELSSLRSEDTAVYYCARDMVAANTDYYFYYGMDVWGQGTTVTVSS
VL: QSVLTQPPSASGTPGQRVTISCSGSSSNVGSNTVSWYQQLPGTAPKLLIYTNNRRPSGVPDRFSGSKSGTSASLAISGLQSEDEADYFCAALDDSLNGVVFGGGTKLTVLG
notes: also called Ab1 IgG2 WT; antibody 1
B2: Ab2 (antibody, human IgG2, lambda, V domains shown)
VH: B1 VH with D33E, N57Y, D59G, I74T, I81M, L83M, M100I
VL: QSVLTQPPSASGTPGQRVTISCSGSNSNIGSNTVNWYHQLPGTAPKLLIYNINKRPSGVPDRFSGSKSGSSASLAISGLQSEDEADYYCSTWDDSLDGVVFGGGTKLTVLG
notes: also called Ab2 IgG2 WT; antibody 2
B3: Ab3 (antibody, human IgG2, kappa, V domains shown)
VH: QVHLVQSGAEVKKPGASVKVSCKASGYTFTSYGISWVRQAPGQGLEWMGWLSTYSGNTNYAQKLQGRVTMTTDTSTSTAYMELRSLRSDDTAVYYCARGNFYYYGMDVWGQGTTVTVSS
VL: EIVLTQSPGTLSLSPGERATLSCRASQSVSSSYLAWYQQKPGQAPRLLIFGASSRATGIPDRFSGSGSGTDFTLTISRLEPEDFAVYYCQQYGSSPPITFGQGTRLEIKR
notes: also called antibody 3
B4: Ab1 N73D IgG2 (antibody, V domains shown)
VH: B1 VH with N73D
VL: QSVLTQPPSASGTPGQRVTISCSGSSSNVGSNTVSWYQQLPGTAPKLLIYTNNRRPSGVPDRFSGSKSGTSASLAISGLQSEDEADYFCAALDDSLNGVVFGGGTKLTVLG
notes: also called Ab1 version 2
B5: Ab1 N73D IgG4P agly/IgG1 (antibody, V domains shown)
VH: B1 VH with N73D
VL: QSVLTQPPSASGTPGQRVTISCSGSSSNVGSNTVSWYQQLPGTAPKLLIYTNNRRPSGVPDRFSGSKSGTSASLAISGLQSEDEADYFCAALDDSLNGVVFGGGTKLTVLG
B6: Ab2 N73D IgG2 (antibody, V domains shown)
VH: B1 VH with D33E, N57Y, D59G, N73D, I74T, I81M, L83M, M100I
VL: B2 VL
notes: also called Ab2 version 2
B7: Ab2 N73D IgG4P agly/IgG1 (antibody, V domains shown)
VH: B1 VH with D33E, N57Y, D59G, N73D, I74T, I81M, L83M, M100I
VL: B2 VL

What follows are binders tested against T1, human OSMR expressed on cells (human, UniProt Q99650 28-979) (assay: cell-based or functional assay).
T1 sequence: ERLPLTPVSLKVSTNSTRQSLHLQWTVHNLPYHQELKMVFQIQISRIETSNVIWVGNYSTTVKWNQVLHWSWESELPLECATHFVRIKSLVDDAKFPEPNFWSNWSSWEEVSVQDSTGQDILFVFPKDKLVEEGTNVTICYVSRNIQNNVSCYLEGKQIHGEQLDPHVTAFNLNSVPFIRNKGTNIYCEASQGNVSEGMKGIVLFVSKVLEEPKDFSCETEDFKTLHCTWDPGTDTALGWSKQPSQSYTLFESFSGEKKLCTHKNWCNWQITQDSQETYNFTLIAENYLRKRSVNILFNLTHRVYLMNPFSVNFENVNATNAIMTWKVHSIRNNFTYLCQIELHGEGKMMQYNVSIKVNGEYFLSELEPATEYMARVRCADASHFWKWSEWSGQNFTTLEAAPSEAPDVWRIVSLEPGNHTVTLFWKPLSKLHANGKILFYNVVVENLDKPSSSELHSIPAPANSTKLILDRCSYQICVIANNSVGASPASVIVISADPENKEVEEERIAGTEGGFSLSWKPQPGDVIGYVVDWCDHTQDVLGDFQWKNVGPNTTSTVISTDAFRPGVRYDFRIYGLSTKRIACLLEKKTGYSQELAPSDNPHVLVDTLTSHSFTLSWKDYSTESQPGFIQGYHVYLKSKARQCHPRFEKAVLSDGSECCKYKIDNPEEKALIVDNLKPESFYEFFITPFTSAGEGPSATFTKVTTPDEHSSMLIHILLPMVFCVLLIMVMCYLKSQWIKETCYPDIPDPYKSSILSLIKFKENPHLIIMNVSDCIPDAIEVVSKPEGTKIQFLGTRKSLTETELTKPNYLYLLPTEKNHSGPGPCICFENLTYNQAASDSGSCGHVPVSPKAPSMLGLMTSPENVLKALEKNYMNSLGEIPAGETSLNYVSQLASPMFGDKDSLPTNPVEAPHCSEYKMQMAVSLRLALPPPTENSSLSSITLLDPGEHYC

B1 and B2 are within 1.5-fold of each other in “IC50, IL-31-induced proliferation of BaF3 cells expressing human IL-31RA4 and OSMR” value: 0.0352 nM for the first, 0.0276 nM for the second.

B3 was tested, and the “IC50, IL-31-induced proliferation of BaF3 cells expressing human IL-31RA4 and OSMR” value was 0.78 nM.

Compared with B1, B2 is 1.6-fold higher in “IC50, OSM-induced STAT3 nuclear translocation in primary normal human lung fibroblasts” value: 0.157 nM for the first, 0.252 nM for the second.

B3 was tested, and the “IC50, OSM-induced STAT3 nuclear translocation in primary normal human lung fibroblasts” value was 1.35 nM.

What follows are binders tested against T2, OSMR (UniProt Q99650 28-740) (assay: Direct ELISA (solid state avidity format)).
T2 sequence (looked up): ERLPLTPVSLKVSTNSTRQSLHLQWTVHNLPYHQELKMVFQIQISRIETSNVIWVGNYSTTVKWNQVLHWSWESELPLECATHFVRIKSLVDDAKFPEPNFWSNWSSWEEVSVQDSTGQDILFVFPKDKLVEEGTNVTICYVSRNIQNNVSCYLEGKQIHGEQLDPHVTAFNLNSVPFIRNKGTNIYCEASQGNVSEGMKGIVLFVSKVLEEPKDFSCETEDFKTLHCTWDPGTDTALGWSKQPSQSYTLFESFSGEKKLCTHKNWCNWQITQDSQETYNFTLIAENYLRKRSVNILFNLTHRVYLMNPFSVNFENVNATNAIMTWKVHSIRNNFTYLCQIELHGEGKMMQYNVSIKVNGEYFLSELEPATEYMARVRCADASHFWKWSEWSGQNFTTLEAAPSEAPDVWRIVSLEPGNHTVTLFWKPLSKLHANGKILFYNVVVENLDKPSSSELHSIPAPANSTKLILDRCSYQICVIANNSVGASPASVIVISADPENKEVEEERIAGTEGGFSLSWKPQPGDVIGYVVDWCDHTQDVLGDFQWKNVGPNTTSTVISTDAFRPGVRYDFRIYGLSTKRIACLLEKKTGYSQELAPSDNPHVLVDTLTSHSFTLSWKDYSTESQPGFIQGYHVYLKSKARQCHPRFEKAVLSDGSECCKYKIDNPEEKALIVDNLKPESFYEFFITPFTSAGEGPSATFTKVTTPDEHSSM

B1 and B2 are within 1.5-fold of each other in EC50: 0.184 nM for the first, 0.182 nM for the second.

B4 and B5 are within 1.5-fold of each other in EC50: 0.0728 nM for the first, 0.0626 nM for the second.

Compared with B6, B7 is 3.2-fold lower in EC50: 0.179 nM for the first, 0.0558 nM for the second.

These binders were tested against T3, hOSMR.FH (human, UniProt Q99650 28-740) (assay: SPR, Biacore 3000, antibody captured by anti-human IgG, hOSMR.FH analyte, 25 C).
T3 construct: also called huOSMR
T3 sequence: T2 sequence (looked up)
Protocol: Biosensor analysis was conducted at 25 C in a HBS-EP+(1×) buffer system (10 mM HEPES pH 7.4, 150 mM NaCl, 3.0 mM EDTA, 0.05% Surfactant P20) using a Biacore 3000 optical biosensor equipped with a CM5 sensor chip. All reagents were kept at 8° C. prior to injection. […] Antibodies 1-3 were diluted (0.25 to 0.5 μg/mL) in running buffer. The antibodies were injected (15 μL) over Flow Cell 2 at a flow rate of 10 μL/min. About 50 RU of antibody was captured. […] Samples were run in duplicate and in random order.
Buffer analyte blanks (0 nM hOSMR) were injected before, in-between, and after sample injections. Antibodies were injected (15 μL) over Flow Cell 2 at a flow rate of 10 μL/min. About 50 RU of antibody was captured. […] The samples were run in triplicate.
Data was analyzed with Scrubber 2.0 software as follows. Data from Flow Cell 2 was subtracted from the data from Flow Cell I (blank reference). The reference subtracted data (2-1) was then subtracted (double referenced) from the nearest 0 nM concentration data. The double referenced long dissociation data was fit to a 1:1 binding model to determine the dissociation rate constant (kd). This dissociation rate constant was used as a fixed parameter to fit the double referenced short dissociation data to a 1:1 binding model in order to determine the association rate constant (ka) and the equilibrium dissociation constant (Kd).

Going from B1 to B2, the Kd falls from 0.221 nM to 0.0327 nM (6.8-fold). The second binds more tightly here.

Binder B3 has a Kd of 1.08 nM.

First: B1
Second: B2
The koff of the first is 5.5-fold higher: 9.95e-05 s⁻¹ for the first, 1.81e-05 s⁻¹ for the second.

B3 was tested, and the koff was 0.000102 s⁻¹.

B1 and B2 are within 1.5-fold of each other in kon: 447000 M⁻¹ s⁻¹ for the first, 550000 M⁻¹ s⁻¹ for the second.

Binder B3 has a kon of 94700 M⁻¹ s⁻¹.

These binders were tested against T2, OSMR (assay: Sandwich ELISA (solution phase format)).

First: B1
Second: B2
The EC50 of the first is 1.6-fold higher: 0.581 nM for the first, 0.366 nM for the second. The second is the more potent here.

First: B4
Second: B5
The EC50 of the first is 7.2-fold higher: 0.359 nM for the first, 0.05 nM for the second. The second is the more potent here.

Compared with B6, B7 is 5.4-fold lower in EC50: 0.343 nM for the first, 0.064 nM for the second. The second is the more potent here.

What follows are binders tested against T4, Soluble OSMR (UniProt Q99650 28-740) (assay: BIAcore, antibody immobilized on CM4 chip, soluble OSMR analyte).
T4 sequence (looked up): T2 sequence (looked up)
Protocol: Binding studies were performed using the BIAcore method. Antibodies containing the variable regions of Ab1 or Ab2 (or the N73D variant of Ab1 or Ab2) with different Fe regions were immobilized on a CM4 chip (GE lifesciences) as per manufacturer's protocols. Soluble OSMR was used as the analyte.

B1 and B2 are within 1.5-fold of each other in Kd: 0.913 nM for the first, 1.01 nM for the second.

Going from B4 to B6, the Kd falls from 0.675 nM to 0.289 nM (2.3-fold). The second binds more tightly here.

B1 and B2 are within 1.5-fold of each other in koff: 0.00015 s⁻¹ for the first, 0.000189 s⁻¹ for the second.

Going from B4 to B6, the koff falls from 0.000168 s⁻¹ to 4.99e-05 s⁻¹ (3.4-fold).

B1 and B2 are within 1.5-fold of each other in kon: 164000 M⁻¹ s⁻¹ for the first, 188000 M⁻¹ s⁻¹ for the second.

B4 and B6 are within 1.5-fold of each other in kon: 249000 M⁻¹ s⁻¹ for the first, 173000 M⁻¹ s⁻¹ for the second.

Biological target: T5, cynomologus OSMR expressed on cells (cynomologus monkey (Macaca fascicularis), UniProt Q99650 28-978 (human entry))
T5 chain: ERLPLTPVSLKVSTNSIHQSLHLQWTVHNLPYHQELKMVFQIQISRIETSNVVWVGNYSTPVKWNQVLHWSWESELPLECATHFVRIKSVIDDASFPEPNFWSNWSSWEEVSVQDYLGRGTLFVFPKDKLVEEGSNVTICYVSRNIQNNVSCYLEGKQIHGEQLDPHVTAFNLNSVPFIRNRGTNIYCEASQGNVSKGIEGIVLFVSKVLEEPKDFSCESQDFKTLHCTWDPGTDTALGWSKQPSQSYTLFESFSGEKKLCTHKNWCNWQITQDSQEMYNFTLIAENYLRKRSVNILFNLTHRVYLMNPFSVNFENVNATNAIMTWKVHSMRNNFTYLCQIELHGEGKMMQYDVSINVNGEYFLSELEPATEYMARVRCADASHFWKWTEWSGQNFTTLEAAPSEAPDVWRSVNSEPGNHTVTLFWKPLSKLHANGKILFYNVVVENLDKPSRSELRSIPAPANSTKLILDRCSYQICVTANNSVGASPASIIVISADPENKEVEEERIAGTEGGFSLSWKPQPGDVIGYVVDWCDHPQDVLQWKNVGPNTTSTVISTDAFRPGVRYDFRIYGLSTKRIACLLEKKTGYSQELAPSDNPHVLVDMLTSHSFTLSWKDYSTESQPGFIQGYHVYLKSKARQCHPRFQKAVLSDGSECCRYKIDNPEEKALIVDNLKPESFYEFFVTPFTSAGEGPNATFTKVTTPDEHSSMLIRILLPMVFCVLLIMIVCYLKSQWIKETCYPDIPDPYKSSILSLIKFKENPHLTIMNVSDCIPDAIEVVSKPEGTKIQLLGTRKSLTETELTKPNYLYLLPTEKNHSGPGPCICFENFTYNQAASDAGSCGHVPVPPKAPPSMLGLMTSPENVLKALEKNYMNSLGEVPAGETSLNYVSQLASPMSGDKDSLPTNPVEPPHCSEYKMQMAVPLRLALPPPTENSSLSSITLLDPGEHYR
Test: cell-based or functional assay

Going from B1 to B2, the “IC50, cyno IL-31-induced proliferation of BaF3 cells overexpressing cyno IL-31RA and OSMR” value falls from 0.225 nM to 0.0293 nM (7.7-fold).

In the case of B3, the “IC50, cyno IL-31-induced proliferation of BaF3 cells overexpressing cyno IL-31RA and OSMR” value is reported as 6.87 nM.

Going from B1 to B2, the “IC50, cyno OSM-induced STAT3 nuclear translocation in a primary kidney epithelial cell line” value falls from 1.26 nM to 0.518 nM (2.4-fold).

B3 was tested, and the “IC50, cyno OSM-induced STAT3 nuclear translocation in a primary kidney epithelial cell line” value was 1.24 nM.

The binders below were run against T2, OSMR (assay: Capture ELISA (avidity-less format)).

First: B1
Second: B2
The EC50 of the first is 2.8-fold higher: 10.2 nM for the first, 3.63 nM for the second. The second is the more potent here.

First: B4
Second: B5
The EC50 of the first is 1.7-fold higher: 4.85 nM for the first, 2.86 nM for the second.

First: B6
Second: B7
The EC50 of the first is 3.4-fold higher: 5.49 nM for the first, 1.61 nM for the second. The second is the more potent here.
